Assay results from US20180355044A1 (CELLERANT THERAPEUTICS, published 2018).
Blank lines part the entries; values can stand above or below the binder they belong to.

What was measured:
[1] = biological target: T1, C type Lectin Like molecule 1 (CLL-1), human, on cells (human, UniProt Q5QGZ9 1-265); assay: competition by flow cytometry on 293-CLL1 cells; Alexa488-labelled ChiM31 is displaced by the unlabelled antibody (half-maximal displacement, headed EC50 on the sheet)
T1 construct: whole, on cells; also called CLEC12A; DCAL-2
T1 sequence (looked up): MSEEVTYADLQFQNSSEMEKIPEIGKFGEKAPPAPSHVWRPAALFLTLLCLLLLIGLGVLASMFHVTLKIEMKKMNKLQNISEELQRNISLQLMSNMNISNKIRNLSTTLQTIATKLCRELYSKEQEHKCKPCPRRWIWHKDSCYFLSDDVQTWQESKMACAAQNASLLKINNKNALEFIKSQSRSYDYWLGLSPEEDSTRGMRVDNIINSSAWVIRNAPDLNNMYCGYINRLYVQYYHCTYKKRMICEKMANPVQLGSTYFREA
Protocol: FIG. 10 is an […] of competitive binding to 293CLL1 cells. ChiM31 was labelled with Alex488. Binding of ChiM31-Alex488 antibody in the presence of ChiM31, HuM31 and mouse M31 starting at 30 μg/ml and serial 3-fold dilutions, was analyzed. Absorbance values MFI (Y-axis) are plotted at each antibody concentration tested (X-axis) in the figure. IC₅₀ values were calculated using GraphPad Prism.
Referring to FIG. 10, ChiM31 was labeled with Alexa488. 293-CLL1 cells were pre-incubated with 1 μg of labeled ChiM31, and then completed with various amount of ChiM31 and HuM31. FACS were performed and data were analyzed and EC50 were calculated.

[2] = biological target: T1, C type Lectin Like molecule 1 (CLL-1), …; assay: flow cytometry on HNT-34 cells, MFI of C6-CLT-D202 ADC over MFI of control C0-CLT-D202 ADC; CLL-1 expression of this line not stated
[3] = biological target: T1, C type Lectin Like molecule 1 (CLL-1), …; assay: cell-based or functional assay
[4] = biological target: T1, C type Lectin Like molecule 1 (CLL-1), …; assay: flow cytometry on AML5 cells (express CLL-1), MFI of C6-CLT-D202 ADC over MFI of control C0-CLT-D202 ADC
[5] = biological target: T1, C type Lectin Like molecule 1 (CLL-1), …; assay: cell-based or functional assay; remark: listed apart in the source
[6] = biological target: T1, C type Lectin Like molecule 1 (CLL-1), …; assay: flow cytometry on PL21 cells, MFI of C6-CLT-D202 ADC over MFI of control C0-CLT-D202 ADC; CLL-1 expression of this line not stated
[7] = biological target: T1, C type Lectin Like molecule 1 (CLL-1), …; assay: flow cytometry on SHI-1 cells, MFI of C6-CLT-D202 ADC over MFI of control C0-CLT-D202 ADC; CLL-1 expression of this line not stated
[8] = biological target: T1, C type Lectin Like molecule 1 (CLL-1), …; assay: flow cytometry on HL-60 cells (express CLL-1), MFI of C6-CLT-D202 ADC over MFI of control C0-CLT-D202 ADC
[9] = biological target: T1, C type Lectin Like molecule 1 (CLL-1), …; assay: flow cytometry on KG-1a cells, MFI of C6-CLT-D202 ADC over MFI of control C0-CLT-D202 ADC; CLL-1 expression of this line not stated
[10] = biological target: T1, C type Lectin Like molecule 1 (CLL-1), …; assay: flow cytometry on U937 cells (listed as CLL-1 expressing in paragraph 160), MFI of C6-CLT-D202 ADC over MFI of control C0-CLT-D202 ADC
[11] = biological target: T1, C type Lectin Like molecule 1 (CLL-1), …; assay: cell-based or functional assay; remark: listed apart in the source
[12] = biological target: T1, C type Lectin Like molecule 1 (CLL-1), …; assay: flow cytometry on EOL-1 cells, MFI of C6-CLT-D202 ADC over MFI of control C0-CLT-D202 ADC; CLL-1 expression of this line not stated
[13] = biological target: T1, C type Lectin Like molecule 1 (CLL-1), …; assay: flow cytometry on AML2 cells, MFI of C6-CLT-D202 ADC over MFI of control C0-CLT-D202 ADC; CLL-1 expression of this line not stated
[14] = biological target: T1, C type Lectin Like molecule 1 (CLL-1), …; assay: flow cytometry on HEL92.1.7-CLL1 cells, MFI of C6-CLT-D202 ADC over MFI of control C0-CLT-D202 ADC
CLL-1 bearing a His Tag [15] = biological target: T2, CLL-1 bearing a His Tag; assay: ELISA on His-tagged CLL-1, purified antibody
T2 construct: also called CLL1 His Tag antigen; His Tag antigen; not shown: The exact limits of the construct are not described
T2 chain: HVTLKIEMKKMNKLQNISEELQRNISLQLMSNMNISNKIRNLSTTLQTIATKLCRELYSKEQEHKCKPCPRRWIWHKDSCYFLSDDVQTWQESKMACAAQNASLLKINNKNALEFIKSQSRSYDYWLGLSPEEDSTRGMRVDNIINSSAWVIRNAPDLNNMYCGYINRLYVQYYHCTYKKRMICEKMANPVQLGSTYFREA
Protocol: FIG. 8 is an ELISA analysis of the binding of purified ChM31 (SEQ ID NO:14/SEQ ID NO:10), HuM31-VH2/VL2 (SEQ ID NO:16/SEQ ID NO:12), HuM31-VH3/VL2 (SEQ ID NO:17/SEQ ID NO:12), and HuM31-VH4/VL2 (SEQ ID NO:18/SEQ ID NO:12), antibodies to CLL-1 bearing a His Tag. Each antibody was tested at various concentrations, starting at 1 μg/ml and serial 2-fold dilutions. Absorbance values (Y-axis) are plotted at each antibody concentration tested (X-axis) in the figure.
Referring to FIG. 8, each antibody was tested at various concentrations, starting at 1 μg/mL and serial 2-fold dilutions. Absorbance values (Y-axis) are plotted at each antibody concentration tested (X-axis) in the figure.

CLL-1 bearing a His Tag [16] = biological target: T2, CLL-1 bearing a His Tag; assay: competitive ELISA on His-tagged CLL-1; binding of mouse M31 is detected, the named antibody is the competitor
Protocol: FIG. 9 is an ELISA analysis of competitive binding affinity of ChM31 (SEQ ID NO:14/SEQ ID NO:10), HuM31-VH1/VL2 (SEQ ID NO:15/SEQ ID NO:12), HuM31-VH2/VL2 (SEQ ID NO:16/SEQ ID NO:12), HuM31-VH3/VL2 (SEQ ID NO:17/SEQ ID NO:12), and HuM31-VH4/VL2 (SEQ ID NO:18/SEQ ID NO:12), antibodies to CLL-1 bearing a His Tag. Binding of mouse M31 antibody in the presence of ChM31, HuM31-VH2/VL2, HuM31-VH3/VL2 or HuM31-VH4/VL2 antibody, starting at 25 μg/ml and serial 3-fold dilutions, was analyzed. Absorbance values (Y-axis) are plotted at each antibody concentration tested (X-axis) in the figure. IC₅₀ values were calculated using GraphPad Prism.
Referring to FIG. 9, binding of mouse M31 antibody in the presence of ChM31, HuM31-VH2/VL2, HuM31-VH3/VL2 or HuM31-VH4/VL2 antibody, starting at 25 μg/mL and serial 3-fold dilutions, was analyzed. Absorbance values (Y-axis) are plotted at each antibody concentration tested (X-axis) in the figure. IC50 values were calculated using GraphPad Prism.

B1: Hu M31 (antibody, V domains shown)
VH: QVQLVQSGAEVKKPGASVKVSCKASGYTFTSYVMHWVRQAPGQRLEWIGYINPYNDGTKYNEKFKGKATITSDTSASTAYMELSSLRSEDTAVYYCARPIYFDNDYFDYWGQGTLVTVSS
VL: DIVMTQSPDSLAVSLGERATINCRASESVDSYGNSFMHWYQQKPGQPPKLLIYLASNLESGVPDRFSGSGSGTDFTLTISSLQAEDVAVYYCQQNNYDPWTFGGGTKVEIK
- EC50 [1]: 1.77 µg/mL

B3: ChM31 (antibody, V domains shown)
VH: EVQLQQSGPELVKPGASVKMSCKASGYTFTSYVMHWVKQKPGQGLEWIGYINPYNDGTKYNEKFKGKATLTSDTSSSTAYMELNSLTSEDSAVYFCARPIYFDNDYFDYWGQGTTLKVSS
VL: TIVLTQSPASLAVSLGQRATISCRASESVDSYGNSFMHWYQQKPGQPPKLLIYLASNLESGVPARFSGSGSRTDFTLTIDPVEADDAATYYCQQNNYDPWTFGGGTKLEIK
notes: chimeric M31; also called Chi M31; ChiM31
- EC50 (read off the curve) (CLL-1 bearing a His Tag [15]): ~0.05 µg/mL
- IC50 (read off the curve) (CLL-1 bearing a His Tag [16]): ~0.6 µg/mL
- EC50 [1]: 0.71 µg/mL

B4: HuM31-VH2/VL2 (antibody, V domains shown)
VH: QVQLVQSGAEVKKPGASVKVSCKASGYTFTSYVMHWVRQAPGQRLEWIGYINPYNDGTKYNEKFKGRATLTSDTSTSTAYMELRSLRSDDTAVYYCARPIYFDNDYFDYWGQGTTVTVSS
VL: DIVMTQSPDSLAVSLGERATINCRASESVDSYGNSFMHWYQQKPGQPPKLLIYLASNLESGVPARFSGSGSGTDFTLTIDPVEADDAATYYCQQNNYDPWTFGGGTKLEIK
notes: humanized M31 variant
- EC50 (read off the curve) (CLL-1 bearing a His Tag [15]): ~0.06 µg/mL

The next lines start with results.

- relative MFI C6/C0 [2]: 5.8 ratio
- relative MFI C6/C0 [4]: 15 ratio
- relative MFI C6/C0 [6]: 14.7 ratio
- relative MFI C6/C0 [7]: 1.4 ratio
- relative MFI C6/C0 [8]: 20 ratio
- relative MFI C6/C0 [9]: 1.3 ratio
- relative MFI C6/C0 [10]: 14.7 ratio
- decrease in IC50, TF1-CLL1 against TF1 cells [11]: ~1000 fold
- relative MFI C6/C0 [12]: 20.5 ratio
- relative MFI C6/C0 [13]: 13 ratio
- relative MFI C6/C0 [14]: 26.1 ratio
B2: C6-CLT-D202 ADC (humanized, cys-substituted at position 239 anti-CLL1 antibody C6-S239C-CYSMAB conjugated to CLT-D202) (antibody, V domains shown)
VH: EVQLVQSGAEVKKPGASVKMSCKASGYTFTSYFIHWVRQAPGQGLEWIGFINPYNDGSKYAQKFQGRATLTSDKSTSTVYMELSSLRSEDTAVYYCTRDDGYYGYAMDYWGQGTLVTVSS
VL: DIQMTQSPSSLSASVGDRVTLTCRATQELSGYLSWLQQKPGKAIKRLIYAASTLDSGVPSRFSGNRAGTDYTLTISSLQPEDFATYYCLQYAIYPYTFGQGTKLEIK
modifications: S239C in the heavy chain constant region (constant region sequence not given); CLT-D202 drug-linker conjugated to the engineered Cys 239; drug to antibody ratio 1.7
notes: Only variable regions are printed; it carries S239C; also called C6-D202; CLL1-ADC
- IC50, cytotoxicity on TF1-CLL1 cells [3]: 0.008 µg/mL
- IC50, cytotoxicity on AML2 cells [5]: 0.003 µg/mL
- IC50, cytotoxicity on AML5 cells [5]: 0.013 µg/mL
- IC50, cytotoxicity on EOL-1 cells [5]: 0.0137 µg/mL
- IC50, cytotoxicity on HEL92.1.7-CLL1 cells [5]: 0.017 µg/mL
- IC50, cytotoxicity on HL-60 cells [5]: 0.011 µg/mL
- IC50, cytotoxicity on HNT-34 cells [5]: 3.5 µg/mL
- IC50, cytotoxicity on KG-1a cells [5]: 82.8 µg/mL
- IC50, cytotoxicity on PL21 cells [5]: 0.199 µg/mL
- IC50, cytotoxicity on SHI-1 cells [5]: 5.67 µg/mL
- IC50, cytotoxicity on U937 cells [5]: 11.7 µg/mL
- IC50, killing of proliferating AML-5 cells [11]: 0.03 µg/mL
- IC50, killing of quiescent AML-5 cells [11]: 0.02 µg/mL
- cell killing of HL-60 cells, relative to the control ADC [11]: > 500 fold

- EC50 (read off the curve) (CLL-1 bearing a His Tag [15]): ~0.04 µg/mL
B5: HuM31-VH3/VL2 (antibody, V domains shown)
VH: QVQLVQSGAEVKKPGASVKVSCKASGYTFTSYVMHWVRQAPGRRLEWIGYINPYNDGTKYNEKFKGKATITSDTSASTAYMELSSLRSEDTAVYYCARPIYFDNDYFDYWGQGTLVTVSS
VL: DIVMTQSPDSLAVSLGERATINCRASESVDSYGNSFMHWYQQKPGQPPKLLIYLASNLESGVPARFSGSGSGTDFTLTIDPVEADDAATYYCQQNNYDPWTFGGGTKLEIK
notes: humanized M31 variant

- EC50 (read off the curve) (CLL-1 bearing a His Tag [15]): ~0.04 µg/mL
B6: HuM31-VH4/VL2 (antibody, V domains shown)
VH: QVQLVQSGAEVKKPGASVKVSCKASGYTFTSYVMHWVRQAPGRRLEWIGYINPYNDGTKYNEKFKGRVTITSDTSASTAYMELSSLRSEDTAVYYCARPIYFDNDYFDYWGQGTLVTVSS
VL: DIVMTQSPDSLAVSLGERATINCRASESVDSYGNSFMHWYQQKPGQPPKLLIYLASNLESGVPARFSGSGSGTDFTLTIDPVEADDAATYYCQQNNYDPWTFGGGTKLEIK
notes: humanized M31 variant
